Results taken from patent US11318209B2, “Targeting macula densa cells as a new therapeutic approach for kidney disease” (MACULA DENSA CELL LLC, priority 2016, dated 2022).
“Also recorded” adds a separate entry of the source.

Key:
[1] = system: Ki67+ proliferating cells in the JGA area; assay: Ki67 immunofluorescence of low salt diet+captopril-treated mouse kidneys; format: in vivo
From the text: FIG. 7. Ki67 (red nuclei) immunofluorescence of control (FIG. 7A-FIG. 7B) and low salt diet+captopril-treated mouse kidneys (FIG. 7C-FIG. 7D). In contrast to control untreated (FIG. 7A) and control+7-NI (FIG. 7B), a high density of Ki67+ proliferating cells are visible around the JGA interstitium in response to low salt diet+captopril treatment (FIG. 7C). […] Nuclei were labeled blue with DAPI. n=4 each group, §: P<0.05 versus ctrl, *: P<0.05 versus untreated low salt+captopril.
(§1) The increased density of NG2+ cells was 70% inhibited by the administration of the selective COX-2 inhibitor SC58236 (FIG. 6E).

[2] = system: NG2+ cells in the JGA area; assay: NG2 immunofluorescence of low salt diet+captopril-treated mouse kidneys; format: in vivo
From the text: FIG. 6. NG2 (FIG. 6A, green) and renin (FIG. 6B, red) immunofluorescence of low salt diet+captopril-treated mouse kidneys. […] Nuclei were labeled blue with DAPI. n=4 each group, *: P<0.05.
as §1

[3] = system: NG2-derived progenitor cells; assay: Kidney tissue remodeling after 10 days of loop diuretic; format: in vivo; details: 10 days of treatment in an animal model
From the text: FIG. 22. […] Increase in renal cortical mesenchyme-derived cell density (red), remodeling of the entire length of the glomerular (G) arterioles by NG2-derived progenitor cells within 10 days in response to loop diuretics.
The Inventors' initial experimental strategy to show proof-of-principle for this macula densa mechanism was to apply gold-standard whole body approaches to activate this new mechanism (e.g. dietary salt restriction and loop diuretics), which have been known for decades to improve kidney function. One example is the use of the loop diuretic furosemide, which blocks salt-sensing by MD cells and therefore is equivalent to the effects of low dietary salt intake as shown in FIGS. 6-7, 10). […] Furosemide and other loop diuretics have been in human clinical use for decades as efficient anti-hypertensive therapies. In addition to diuretics, the Inventors will explore other small molecules that may have specific MD cell targeting characteristics, and may activate the MD kidney repair program.

MMDD1 cells = assay: GFP transfection with MMDD1 homing peptide+GFP cDNA complex; format: cell-based; details: overnight incubation, fluorescence microscopy
From the text: FIG. 19. Selective targeting of MD cells with the MMDD1 homing peptide. […] Note the diffuse cytosolic GFP expression in MMDD1 cells indicating successful escape of the endosomes after fusion protein internalization.
In preliminary data, the Inventors identified a MMDD1 homing peptide based on phage-display, used it as targeting domain, and fused to a histidine-rich amphipathic peptide, optimized for DNA binding properties and gene delivery through endosomal escape. The fusiogenic peptide was synthesized:
The peptide was mixed with pcDNA3.1 GFP and incubated for 1 hour at room temperature. The solution was added to cultured MMDD1 cells (MD cell line), HEK293 cells and M-1 cells (collecting duct cell line), and incubated overnight at 37° C. in a humidified atmosphere (95% air and 5% CO2). Transfection was measured by fluorescence microscopy.

cultured GEnCs [4] = assay: Endothelial tube formation assay (in vitro angiogenesis); format: cell-based; details: standard doses of CCN1 and VEGF
Experimental: FIG. 11. Robust effect of CCN1 on GEnCs: in vitro angiogenesis. Endothelial tube formation assays were performed using cultured GEnCs and standard doses of CCN1 and VEGF. *: P<0.05. Results are shown in FIG. 11A, FIG. 11B, FIG. 11C, FIG. 11D and FIG. 11E.
(§2) CCN1 had no effect on renin cell proliferation and migration (not shown).
In order to reproduce all of these MD-specific protective factors for therapeutic use, the Inventors utilized the existing MMDD1 in vitro cell culture model of MD cells that endogenously produce these factors. Mimicking the in vivo physiological activation of MD cells (low salt diet), the NaCl content of MD tissue culture medium was reduced by half as described earlier. […] The therapeutic strategy with this medium (illustrated in FIG. 21) is the same as above for CCN1, to inject it under the renal capsule for specific kidney targeting.

cultured GEnCs [5] = assay: GEnC cell proliferation and cell migration (scratch opening assay); format: cell-based
renin cell = assay: Renin cell proliferation and migration; format: cell-based; details: not shown
From the text: as §2

sclerotic glomeruli = assay: ADR mouse model of GS, renal subcapsular treatment; format: in vivo
From the text: FIG. 17. The effects of CCN1 and MMDD1 conditioned media treatment in the ADR mouse model of GS. FIG. 17A: illustration of study design. FIG. 17B: Effects of CCN1 and MMDD1 media on the number of Ki67+ cells (IF, red) per field. FIG. 17C: Effects of CCN1 and MMDD1 media on the number of p57+ podocytes (IF, red) per glomerulus. Green is autofluorescence for visualization of tissue anatomy.
In other preliminary experiments, mouse (ADR nephropathy resembling human-like FSGS) and rat (PAN-induced FSGS) models of CKD were established. Single renal subcapsular treatment with exogenous recombinant CCN1 was performed at a time point (two weeks after second ADR dose in mice, or after the second dose of PAN in rats) when severe and persistent glomerular pathology was confirmed (FIG. 17A), with subsequent two weeks' follow-up. Animals were placed in metabolic cages weekly for urine collection, and tissues (kidney, aorta, heart, brain, blood) harvested 4 weeks (after first ADR dose in mice), or 2 months (after first PAN dose in rats).
Since the main problem in kidney disease appears to be reduced or absent production of CCN1 by macula densa cells, the Inventors can supplement recombinant CCN1 peptide delivered specifically into the renal parenchyma. In preliminary studies illustrated in FIG. 17, the Inventors used subcapsular injections of recombinant CCN1. However, this is invasive procedure, which would have limited clinical use. A much better non-invasive approach the Inventors are currently testing is to give systemic iv injection of recombinant CCN1 targeted specifically to the kidney blood supply. This is performed by conjugating recombinant CCN1 to a glomerulus homing peptide. The promise and therapeutic benefit of this approach is shown in FIG. 17 in a pre-clinical animal model of CKD.
In order to reproduce all of these MD-specific protective factors for therapeutic use, the Inventors utilized the existing MMDD1 in vitro cell culture model of MD cells that endogenously produce these factors. […]

[6] = BalbC Adriamycin mouse model of FSGS; format: in vivo
From the text: FIG. 24. The robust protective effects of treatment with recombinant CCN1 or conditioned MD cell media in the BalbC Adriamycin mouse model of FSGS in vivo. FIG. 24A: Albuminuria (albumin/creatinine ratio, ACR) in the various control and treatment groups before ADR-induced kidney injury (baseline), two weeks later before the start of treatments, and 1 and 4 weeks after treatment with saline, recombinant CCN1, control or low salt-conditioned MD cell media. FIG. 24B-FIG. 24C: Trichrome staining of kidney histological sections.
In other work The Inventors tested the effects and therapeutic potential of the aforementioned novel biologicals. The robust protective effects of treatment with recombinant CCN1 or conditioned MD cell media in the BalbC Adriamycin mouse model of human-like focal segmental glomerulosclerosis (FSGS) in vivo is shown in FIG. 24. […] The development of albuminuria, the most important and clinically relevant functional readout of the failing kidneys was measured in the various control and experimental treatment groups before ADR-induced kidney injury (baseline), two weeks later before the start of treatments, and 1 and 4 weeks after treatment with saline, recombinant CCN1, control or low salt-conditioned MD cell media.

[7] = system: glomerular endothelial cells; assay: Serial MPM imaging of glomerular endothelial cells in Cdh5-Confetti mice; format: in vivo, mouse
Experimental: FIG. 15. Tracking the fate of the same glomerular endothelial cells over time in vivo at the single cell level. FIG. 15A-FIG. 15B: Serial MPM imaging of the same glomerulus (G) in the same Cdh5-Confetti mice was performed daily for one week. Endothelial cell distribution was registered using Z-sectioning of the glomerulus from top to bottom at each time point. Compared to baseline (FIG. 15A) when cells of all Confetti colors (membrane-bound CFP (blue), nuclear GFP (green), cytosolic YFP (yellow) and RFP (red)) were evenly distributed within the glomerulus, monochromatic glomeruli developed as early as 4 days (FIG. 15B) after endothelial injury (L-NAME treatment) indicating the presence of single precursor cell-derived colonies. Note the presence of cells in multiple colors in the afferent arteriole (AA, arrow) at baseline (FIG. 15A) including one GFP+ (green) and one RFP+ (magenta) cell at the terminal segment, and the identically colored intra-glomerular cell colonies (mostly green, some magenta) 4 days later (FIG. 15B). FIG. 15C: Schematic of the three directly adjacent JGA cell types (MD, JG renin, and AA EPCs) forming a functional syntitium via cell-to-cell crosstalk to remodel the glomerulus.

[8] = low salt diet+captopril treatment for one week

For O=[N+]([O-])c1cccc2cn[nH]c12 [7-NI], the “proliferation of NG2+ cells” value [1, 8] was “completely abolished” and the “number of Ki67+ cells in the JGA area” value ([1]; low salt diet+captopril-treated, n=4 each group, P<0.05 versus untreated low salt+captopril) was “significantly reduced”.

With NS(=O)(=O)c1ccc(-n2nc(C(F)(F)F)cc2-c2ccc(Cl)cc2)cc1 [SC58236] the “inhibition of the increased density of NG2+ cells” value [2, 8] was 70% and the “number of NG2+ cells in the JGA area” value ([2]; low salt diet+captopril-treated, n=4 each group, P<0.05) was “significantly reduced”.

With NS(=O)(=O)c1cc(C(=O)O)c(NCc2ccco2)cc1Cl [furosemide] the “kidney tissue (vascular and glomerular) remodeling” value [3] was “significant kidney tissue remodeling; also recorded: Robust vascular and glomerular remodeling”.

For “NH2-ACFNDSDMLCGGGKKHLLAHALHLLALLALHLAHALAHLKKA-NH2 (H-ACFNDSDMLCGGGKKHLLAHALHLLALLALHLAHALAHLKKA-NH2; cysteine pairing not given here) [MMDD1 homing peptide+GFP cDNA complex]”, the “transfection with GFP” value (MMDD1 cells) was “successful transfection”.

B1: CCN1: recombinant CCN family member 1, secreted matricellular protein, angiogenic inducer (protein, UniProt O00622 25-381, looked up)
CCN family member 1: TCPAACHCPLEAPKCAPGVGLVRDGCGCCKVCAKQLNEDCSKTQPCDHTKGLECNFGASSTALKGICRAQSEGRPCEYNSRIYQNGESFQPNCKHQCTCIDGAVGCIPLCPQELSLPNLGCPNPRLVKVTGQCCEEWVCDEDSIKDPMEDQDGLLGKELGFDASEVELTRNNELIAVGKGSSLKRLPVFGMEPRILYNPLQGQKCIVQTTSWSQCSKTCGTGISTRVTNDNPECRLVKETRICEVRPCGQPVYSSLKKGKKCSKTKKSPEPVRFTYAGCLSVKKYRPKYCGSCVDGRCCTPQLTRTVKMRFRCEDGETFSKNVMMIQSCKCNYNCPHANEAAFPFYRLFNDIHKFRD
With B1 the “in vitro angiogenesis (tube formation assay) compared with VEGF” value (cultured GEnCs [4]) was “more effective”, the “effect on cell proliferation and migration” value (cultured GEnCs [5]; added to the media of cultured GEnCs) was “robust dose-dependent effect” and the “effects on GEnCs in presence of blocking antibodies for integrins αvβ3 and VEGF receptor blockers” value (cultured GEnCs [5]; not shown) was “almost completely abolished”. The “effect on renin cell proliferation and migration” value (renin cell) was “no effect”, the proteinuria (sclerotic glomeruli; preliminary mouse and rat studies of GS) was “diminished proteinuria” and the “increase in Ki67+ proliferating cells in glomeruli” value (sclerotic glomeruli; single renal subcapsular treatment, two weeks' follow-up) was greater than 20 fold. The “number of p57+ podocytes” value (sclerotic glomeruli; single treatment, treated versus control groups) was “significantly increased”, the “albuminuria (albumin/creatinine ratio, ACR)” value ([6]; treatment for 5 consecutive days started two weeks after 8 mg/kg ADR iv, 1 and 4 weeks after treatment) was “robust decline” and the “glomerulosclerosis and tissue fibrosis (trichrome kidney histology)” value ([6]; versus control saline-treated) was “improved pathology”. The “Confetti cell tracing units in glomeruli” value ([7]; subcapsular treatment for one week) was “high number of Confetti cells formed monochromatic tracing units” and the “remodeling of the glomerular endothelial layer” value ([7]; within a few days) was “rapid and robust remodeling”.
